28 molecules from patent US20240327535A1 (EISAI R AND D MANAGEMENT, published 2024) can be followed below.

Test [1] has as its target T1, extracellular domain of rhesus monkey BCMA (rhesus monkey, UniProt F7FFA0 1-53).
T1 construct: extracellular domain; also called RhBCMA
In words: Octet BLI; Fab 200 nM. On the technique in general: Biolayer interferometry detects binding as a change in optical thickness at a sensor tip.

Test [2] deals with T2, extracellular domain of human BCMA (human, UniProt Q02223 1-54).
T2 construct: amine-linked to Octet AR2G tips; also called hsBCMA; BCMA (human)
T2 sequence: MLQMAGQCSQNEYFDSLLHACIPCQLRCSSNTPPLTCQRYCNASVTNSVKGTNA
Nature of the test: Octet BLI; Fab 200 nM.

As usually defined, the Kd is the concentration at which binding is half-saturated.

Where a chain is given by its changes, count along the chain named.

T1 sequence (F7FFA0 entry or part of it): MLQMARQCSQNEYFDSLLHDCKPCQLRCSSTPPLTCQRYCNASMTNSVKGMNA

B1: AB200-R1H32-R2Vk35 (Fab, V domains shown)
VH: QVQLVQSGAEVKKPGSSVKVSCKASGGTFSNYWMHWVRQAPGQGLEWMGATYRSHSDTYYNQKFKSRVTITADKSTSTAYMELSSLRSEDTAVYYCARGAIYHGYDVIDNWGQGTLVTVSS
VL: DIQMTQSPSSLSASVGDRVTITCRASQSISSYINWYQQKPGKAPKLLIYATSNLQSGVPSRFSGSGSGTDFTLTISSLQPEDFATYYCQQYRRIPWTFGQGTKLEIKR
Regarding B1, the Kd in test [1] came to 4.13 nM; in test [2] it was 0.843 nM.

B2: AB200-R1H32-R2Vk20 (Fab, V domains shown)
VH: B1 VH
VL: B1 VL with I33L
With B2, the Kd was found to be 4.82 nM in test [1] and 0.867 nM in test [2].

B3: AB200-R1H32-R2Vk36 (Fab, V domains shown)
VH: B1 VH
VL: B1 VL with Y91F, I94L
For the molecule B3, the Kd is 3.45 nM in test [1] and 0.83 nM in test [2].

B4: AB200-R1H32-R2Vk46 (Fab, V domains shown)
VH: B1 VH
VL: B1 VL with S56I, Y91F, I94L
For the molecule B4, the Kd in test [1] turned out to be 2.98 nM; in test [2], 0.778 nM.

B5: AB200-R1H32-R2Vk9 (Fab, V domains shown)
VH: B1 VH
VL: B1 VL with I33L, T51A, N53S, I94L, T97S
B5: the Kd in test [1] was found to be 7.38 nM; in test [2], 1.43 nM.

B6: AB200-R1H32-R2Vk14 (Fab, V domains shown)
VH: B1 VH
VL: B1 VL with T51A, N53S, I94L, T97S
On to B6, for which the Kd in test [1] was determined as 6.05 nM; in test [2], 1.32 nM.

B7: AB200-R1H32-R2Vk15 (Fab, V domains shown)
VH: B1 VH
VL: B1 VL with T51A, N53S
Turning to B7, the Kd in test [1] was determined as 6.41 nM; in test [2], 1.29 nM.

B8: AB200-R1H32-R2Vk25 (Fab, V domains shown)
VH: B1 VH
VL: B1 VL with I33L, L54I
Regarding B8, the Kd in test [1] came out at 5.62 nM; in test [2], 1.04 nM.

B9: AB200-R1H32-R2Vk26 (Fab, V domains shown)
VH: B1 VH
VL: B1 VL with I33L, L54I, Y91F, I94L
Turning to B9, the figures for the Kd in test [1] and in test [2] were 3.85 nM and 1.06 nM, respectively.

B10: AB200-R1H32-R2Vk5 (Fab, V domains shown)
VH: B1 VH
VL: B1 VL with I33L, S56I, Y91F, R93K, I94L, T97S
B10: the Kd was determined as 5.66 nM in test [1] and 0.882 nM in test [2].

B11: AB200-R1H32-R2Vk6 (Fab, V domains shown)
VH: B1 VH
VL: B1 VL with Y91F, R93K, I94L, T97S
Turning to B11, the Kd in test [1] came to 4.63 nM; in test [2], 1.23 nM.

B12: AB200-R1H32-R2Vk42 (Fab, V domains shown)
VH: B1 VH
VL: B1 VL with L54I, R93K, T97S
B12: the Kd in test [1] turned out to be 5.93 nM; in test [2], 1.04 nM.

B13: AB200-R1H32-R2Vk18 (Fab, V domains shown)
VH: B1 VH
VL: B1 VL with T51A, N53S, Y91F, R93K
In the case of B13, the results for the Kd in test [1] and in test [2] were 6.3 nM and 1.52 nM, respectively.

B14: AB200-R1H32-R2Vk47 (Fab, V domains shown)
VH: B1 VH
VL: B1 VL with S56I, R93K, T97S
For the molecule B14, the values for the Kd in test [1] and in test [2] were 3.91 nM and 0.766 nM, respectively.

B15: AB200-R1H32-R2Vk39 (Fab, V domains shown)
VH: B1 VH
VL: B1 VL with L54I, I94L, T97S
As to B15, the Kd in test [1] was 4.76 nM; in test [2], 1.06 nM.

B16: AB200-R1H32-R2Vk2 (Fab, V domains shown)
VH: B1 VH
VL: B1 VL with T51A, N53S, Y91F, R93K, I94L, T97S
Turning to B16, the Kd in test [1] stood at 5.5 nM; in test [2], 1.48 nM.

B17: AB200-R1H32-R2Vk7 (Fab, V domains shown)
VH: B1 VH
VL: B1 VL with L54I, Y91F, R93K, I94L, T97S
B17: the Kd in test [1] turned out to be 5 nM; in test [2] it was 1.27 nM.

B18: AB200-R1H32-R2Vk22 (Fab, V domains shown)
VH: B1 VH
VL: B1 VL with I33L, R93K, T97S
As to B18, the values for the Kd in test [1] and in test [2] were 5.64 nM and 1.06 nM, respectively.

B19: AB200-R1H32-R2Vk29 (Fab, V domains shown)
VH: B1 VH
VL: B1 VL with I33L, S56I, I94L, T97S
Turning to B19, the figures for the Kd in test [1] and in test [2] were 3.69 nM and 1.14 nM, respectively.

B20: AB200-R1H32-R2Vk16 (Fab, V domains shown)
VH: B1 VH
VL: B1 VL with T51A, N53S, Y91F, I94L
Regarding B20, the Kd came out at 4.54 nM in test [1] and 1.17 nM in test [2].

B21: AB200-R1H32-R2Vk8 (Fab, V domains shown)
VH: B1 VH
VL: B1 VL with S56I, Y91F, R93K, I94L, T97S
Take B21: the figures for the Kd in test [1] and in test [2] were 3.59 nM and 0.92 nM, respectively.

B22: AB200-R1H32-R2Vk23 (Fab, V domains shown)
VH: B1 VH
VL: B1 VL with I33L, Y91F, R93K
Consider B22, for which the dissociation constant (Kd) in test [1] was determined as 5.08 nM; in test [2], 1.13 nM.

B23: AB200-R1H32-R2Vk4 (Fab, V domains shown)
VH: B1 VH
VL: B1 VL with I33L, L54I, Y91F, R93K, I94L, T97S
Regarding B23, the Kd in test [1] is 5.6 nM; in test [2], 1.14 nM.

B24: AB200-R1H32-R2Vk19 (Fab, V domains shown)
VH: B1 VH
VL: B1 VL with I33L, I94L, T97S
Turning to B24, the Kd in test [1] came to 4.57 nM; in test [2], 0.946 nM.

B25: AB200-R1H32-R2Vk17 (Fab, V domains shown)
VH: B1 VH
VL: B1 VL with T51A, N53S, R93K, T97S
For the molecule B25, the Kd in test [1] came to 7.49 nM; in test [2], 1.43 nM.

B26: AB200-R1H32-R2Vk41 (Fab, V domains shown)
VH: B1 VH
VL: B1 VL with L54I, Y91F, I94L
As to B26, the Kd in test [1] was determined as 4.26 nM; in test [2] it was 1.19 nM.

B27: AB200-R1H32-R2Vk10 (Fab, V domains shown)
VH: B1 VH
VL: B1 VL with I33L, T51A, N53S
Take B27: the Kd turned out to be 7.86 nM in test [1] and 2.1 nM in test [2].

B28: AB200-R1H32-R2Vk45 (Fab, V domains shown)
VH: B1 VH
VL: B1 VL with S56I
Turning to B28, the Kd was found to be 3.33 nM in test [1] and 0.714 nM in test [2].
